Experimental data taken from PMC9394524.

Target: Kel1 (UniProt P38853)
Test: GFP-trap IP of Kel1-GFP, anti-FLAG blot
Details: reference: wild-type Sst2-3xFLAG; sites S539

Substance: RGS Sst2 (from UniProt P11972) S539A
- binding against the reference: stronger
